Experimental findings from FireProtDB (doi:10.1110/ps.0237703) are described below.

For the data set the following is noted: pH 8, Thermal, CD, Bis-Tris propane ammonium acetate 0.05 M 0.05 M, reversible: No, whole UniProt chain shown.

B1: wild type, O00095 (protein)
chain: MKFLQVLPALIPAALAQTSCDQWATFTGNGYTVSNNLWGASAGSGFGCVTAVSLSGGASWHADWQWSGGQNNVKSYQNSQIAIPQKRTVNSISSMPTTASWSYSGSNIRANVAYDLFTAANPNHVTYSGDYELMIWLGKYGDIGPIGSSQGTVNVGGQSWTLYYGYNGAMQVYSFVAQTNTTNYSGDVKNFFNYLRDNKGYNAAGQYVLSYQFGTEPFTGSGTLNVASWTASIN
As usually defined, the Tm is the temperature at which the thermal transition is half complete. Turning to B1, the Tm (Hypocrea jecorina) is 54.4 °C.

B2: wild type, Q8NJZ1 (protein)
chain: MKANIVILSLFAPLAAVAQTLCGQYSSNTQGGYIFNNNMWGMGSGSGSQCTYVDKVWAEGVAWHTDWSWSGGDNNVKSYPYSGRELGTKRIVSSIKSISSGADWDYTGSNLRANAAYDIFTSANPNHATSSGDYEVMIWLGRYGGVYPIGNSIGTVRAAGRDWALHIGYNGAMKVFSFVAANPVTRFDGEIMDFFYLLRDMQGYPMTSQYLLTLQFGTEPFTGSGAKFNCWYFGATLSYW
With B2, the Tm (Bionectria ochroleuca) came to 45.9 °C.

B3: wild type, Q8NJY6 (protein)
chain: MKFLQVLPAILPAALAQTSCDQYATFSGNGYIVSNNLWGASAGSGFGCVTSVSLNGAASWHADWQWSGGQNNVKSYQNVQINIPQKRTVNSIGSMPTTASWSYSGSDIRANVAYDLFTAANPNHVTYSGDYELMIWLGKYGDIGPIGSSQGTVNVGGQTWTLYYGYNGAMQVYSFVAQSNTTSYSGDVKNFFNYLRDNKGYNAGGQYVLSYQFGTEPFTGSGTLNVASWTASIN
B3: where the note is “Trichoderma citrinoviride”, the Tm came to 49.2 °C.
